Experimental data from article PMC7560827, “Immunodominant proteins P1 and P40/P90 from human pathogen Mycoplasma pneumoniae” (Nature Communications, 2020).

Experiments:
Settings in all cases: both partners purified
[1] = biological target: T1, P90N polypeptide (Ala446 to the C-end of P40/P90N) (Mycoplasma pneumoniae, UniProt Q50341 446-1003); test: SEC-MALS
T1 construct: source: E. coli B834 (DE3), cleavage product in purified P40/P90N samples
T1 sequence: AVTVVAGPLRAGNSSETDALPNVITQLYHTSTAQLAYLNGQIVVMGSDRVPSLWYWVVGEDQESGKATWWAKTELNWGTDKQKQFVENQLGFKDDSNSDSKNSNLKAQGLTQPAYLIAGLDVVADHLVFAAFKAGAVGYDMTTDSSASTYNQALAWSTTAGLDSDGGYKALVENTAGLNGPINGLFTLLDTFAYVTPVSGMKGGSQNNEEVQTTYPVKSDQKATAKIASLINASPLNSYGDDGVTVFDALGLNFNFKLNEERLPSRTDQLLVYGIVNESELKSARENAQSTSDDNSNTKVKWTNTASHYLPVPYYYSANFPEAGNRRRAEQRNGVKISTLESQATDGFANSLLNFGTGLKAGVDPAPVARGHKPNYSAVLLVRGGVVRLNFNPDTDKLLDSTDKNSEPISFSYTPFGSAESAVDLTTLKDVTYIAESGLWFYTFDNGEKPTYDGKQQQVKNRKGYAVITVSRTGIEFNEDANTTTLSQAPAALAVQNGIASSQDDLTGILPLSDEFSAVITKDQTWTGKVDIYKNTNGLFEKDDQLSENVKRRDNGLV

[2] = biological target: P40/P90N (short construct of P40/P90, residues Ser23-Val1003) (Mycoplasma pneumoniae, UniProt Q50341 23-1003); test: SEC
[3] = biological target: P40/P90 long construct (residues 23-1114) (Mycoplasma pneumoniae, UniProt Q50341 23-1114); test: SEC

B1: P40 polypeptide (from the N-end of P40/P90N to Arg445) (domain or fragment)
chain: SLANTYLLQDHNTLTPYTPFTTPLNGGLDVVRAAHLHPSYELVDWKRVGDTKLVALVRSALVRVKFQDTTSSDQSNTNQNALSFDTQESQKALNGSQSGSSDTSGSNSQDFASYVLIFKAAPRATWVFERKIKLALPYVKQESQGSGDQGSNGKGSLYKTLQDLLVEQPVTPYTPNAGLARVNGVAQDTVHFGSGQESSWNSQRSQKGLKNNPGPKAVTGFKLDKGRAYRKLNESWPVYEPLDSTKEGKGKDESSWKNSEKTTAENDAPLVGMVGSGAAGSASSLQGNGSNSSGLKSLLRSAPVSVPPSSTSNQTLSLSNPAPVGPQAVVSQPAGGATAAVSVNRTASDTATFSKYLNTAQALHQMGVIVPGLEKWGGNNGTGVVASRQDATSTNLPHAAGASQTGLGTGSPREPALTATSQR
notes: source: E. coli B834 (DE3), cleavage product in purified P40/P90N samples
- binding result [1]: binds

B2: P1 extracellular region (residues Thr29-Asp1521) (domain or fragment)
chain: TVVGHFTSTTTTLKRQQFSYTRPDEVALRHTNAINPRLTPWTYRNTSFSSLPLTGENPGAWALVRDNSAKGITAGSGSQQTTYDPTRTEAALTASTTFALRRYDLAGRALYDLDFSKLNPQTPTRDQTGQITFNPFGGFGLSGAAPQQWNEVKNKVPVEVAQDPSNPYRFAVLLVPRSVVYYEQLQRGLGLPQQRTESGQNTSTTGAMFGLKVKNAEADTAKSNEKLQGAEATGSSTTSGSGQSTQRGGSSGDTKVKALKIEVKKKSDSEDNGQLQLEKNDLANAPIKRSEESGQSVQLKADDFGTALSSSGSGGNSNPGSPTPWRPWLATEQIHKDLPKWSASILILYDAPYARNRTAIDRVDHLDPKAMTANYPPSWRTPKWNHHGLWDWKARDVLLQTTGFFNPRRHPEWFDGGQTVADNEKTGFDVDNSENTKQGFQKEADSDKSAPIALPFEAYFANIGNLTWFGQALLVFGGNGHVTKSAHTAPLSIGVFRVRYNATGTSATVTGWPYALLFSGMVNKQTDGLKDLPFNNNRWFEYVPRMAVAGAKFVGRELVLAGTITMGDTATVPRLLYDELESNLNLVAQGQGLLREDLQLFTPYGWANRPDLPIGAWSSSSSSSHNAPYYFHNNPDWQDRPIQNVVDAFIKPWEDKNGKDDAKYIYPYRYSGMWAWQVYNWSNKLTDQPLSADFVNENAYQPNSLFAAILNPELLAALPDKVKYGKENEFAANEYERFNQKLTVAPTQGTNWSHFSPTLSRFSTGFNLVGSVLDQVLDYVPWIGNGYRYGNNHRGVDDITAPQTSAGSSSGISTNTSGSRSFLPTFSNIGVGLKANVQATLGGSQTMITGGSPRRTLDQANLQLWTGAGWRNDKASSGQSDENHTKFTSATGMDQQGQSGTSAGNPDSLKQDNISKSGDSLTTQDGNAIDQQEATNYTNLPPNLTPTADWPNALSFTNKNNAQRAQLFLRGLLGSIPVLVNRSGSDSNKFQATDQKWSYTDLHSDQTKLNLPAYGEVNGLLNPALVETYFGNTRAGGSGSNTTSSPGIGFKIPEQNNDSKATLITPGLAWTPQDVGNLVVSGTTVSFQLGGWLVTFTDFVKPRAGYLGLQLTGLDASDATQRALIWAPRPWAAFRGSWVNRLGRVESVWDLKGVWADQAQSDSQGSTTTATRNALPEHPNALAFQVSVVEASAYKPNTSSGQTQSTNSSPYLHLVKPKKVTQSDKLDDDLKNLLDPNQVRTKLRQSFGTDHSTQPQPQSLKTTTPVFGTSSGNLSSVLSGGGAGGGSSGSGQSGVDLSPVEKVSGWLVGQLPSTSDGNTSSTNNLAPNTNTGNDVVGVGRLSESNAAKMNDDVDGIVRTPLAELLDGEGQTADTGPQSVKFKSPDQIDFNRLFTHPVTDLFDPVTMLVYDQYIPLFIDIPASVNPKMVRLKVLSFDTNEQSLGLRLEFFKPDQDTQPNNNVQVNPNNGDFLPLLTASSQGPQTLFSPFNQWPD
notes: source: E. coli B834 (DE3), purified (HisTrap, Superdex 200)
- binding result [2]: binds
- binding result [3]: binds
